The values below come from article PMC3064727.

Substrate in this data set: CC(C)C[C@H](N)C(=O)O
The data set is described as follows: pyrophosphate release assay of A-domain adenylation. The data set is classed as biochemical, Aspergillus terreus. As to conditions: holo C-A-T-R module.

B1: NRPS325 (Aspergillus terreus NIH2624) (protein)
chain: PTVERHVESQEPVVEAAVVASSSDSSSEGTMTPPSSRGINTPHTEITNLQLESVKSKACTAVQRREKMSFSQNRLWFPSAYLEQETPFNCTTSYTLTGPLDTARLENAFQRLIQRHESFRTAFYTDEVSGAAMQRVLASSPFQLRTMLGNKDDMQRVFRQIANYHFDLSVADTLVATLISHGPKDHTIVFGYHHIIMDGVSWQITLNDLARFYESDNPELPQLSQYIEFSVKQRQLVSSGAHDAKLSYWRKEFPSAPPLLPLFPFAKVGARKALTRYDTLDYIYDVDVSLVSKIKKASLAAKTTTFHFYLAAFVVLLNRFLEIDDVCLGIIDANRSDKTFLNTVGFLLDMLPLRLKVNKKERFVHTLRNTRAKAYNALEHSGVPLETILKELQVPTSATNTPLFQVLMNYRMGALRAPQMGDAKMNFLDYEDAKAPFDLAISIDEKDDGTGMLTFSMQDYMYDWEGAELLVKTYVHLLDTLATDSSQRINEVSLFDESLVNQSMVAGTGPVTGLDWAGTETISQRVDAMTAQRPDGVAVKDLNGKARTYAETQARVYALASSLQQAGITSGARVAVYCEPTVDTVALVLAIYRVGAAYIPLDVRNSHERLADVVRECKPTLILYHGATKHTLVDVAGDGQDALDIDTVPQSAAPIPDVSKLSDPAVILYTSGSTGKPKGIMLTHANLSLQFASISSALDLTDRDVVLQQSALGFDASLSQMFMALTNGGTLIHGSNRGDPVDLAALIEREGVTLTLIMISEMSALLQYGSDILSRCQSWRIALCGGEAFTVNLLRKFRDLNLPNLELYNAYGPTEASIMSSLGKVAYRRTDWGDGSVVPVGPPLPNYGVYVLDENFQPCPLGWPGELCICGPGVAEGYVGLPELTSSKFQPDQLRKPQGPSYDGWVRVYRTGDKARLLQDGSFVFLGRMDGDSQVKLRGIRIELNDISNSIVKTSKEAIVDAATIVKGTTSQTLVSFVVFAPAKVVDLERSNSSASAYLRQVIQSLPLPVYMRPAIAVPLERLPFTERGKLDTKALAAIPIQEDEETVNEELSETEQKLKQVWQDILSEQGMSLEIRRQSDFFSVGGNSLMLMRVRAKMLEVFGVSVPLAELFQASTLETLASRLDGNKTAESDNIVWNEETALDVSLPPAIAHPRDHPEKDLSVILTGSTGFLGRAIVRQLIADPRISTIHCLAVRPGRTLPEELVGSSKVIVYTGDLAAKRLGLSAPQAQEIFSSAAAIIHNGAEVSHMKSYHSLRPTNVDSTRQLVELALRSSIDSAVRTPAFHYVSTAGVGHLLGIPAFPEQSVSSSPPPVDGSDGYVAAKWASERILEQASERLGLPVFIHRPSNITGPDVGDRDIIHNVWRWSEVLRAVPDLVAAGAKGAFDFVGVETCAKGITDTLFVQASAGHLAYIHQSGENVIPVEEFGECLQRNGGADVELVPFDQWVDKAVQAGLDDLVASFLRGTKGAFQMPFLPKGLRQ
A word on the Km: it is the substrate concentration at which the rate is half of its maximum. As a reminder, the kcat is the maximal rate divided by the concentration of active sites. B1: the Km amounted to 310.0 ± 15.5 µM and the kcat is 0.287 ± 0.04 s⁻¹.
